Measured values taken from publication PMC3959867 (Science (New York, N.Y.), 2012).

What was measured:
[1] = molecular target: K11V-TR, cylindrin tandem repeat V2L variant; assay: SEC
[2] = molecular target: K11V-TR, cylindrin tandem repeat V2L variant; assay: crystal structure
[3] = molecular target: K11V-TR, cylindrin tandem repeat V2L variant; assay: native MS
crystal structure = molecular target: the molecule itself; assay: crystal structure

Molecule: K11V-TR, cylindrin tandem repeat V2L variant (peptide)
- stoichiometry N [1]: 3
- stoichiometry N [2]: 3
- stoichiometry N [3]: 3

B1: G6V, six-residue segment GDVIEV of alphaB crystallin (peptide)
chain: GDVIEV
- binding result (crystal structure): binds
